Source: article PMC4215538, “A clathrin coat assembly role for the muniscin protein central linker revealed by TALEN-mediated gene editing” (eLife, 2014)

Target: T1, AP-2 α appendage (mouse, UniProt P17427 701-938)
T1 construct: AP-2 αC subunit appendage, mouse, residues 701–938; It was added soluble to glutathione-Sepharose pull-downs, so GST was probably removed; also called αC appendage (mouse residues 701–938); purified AP-2 α appendage; source: purified (from the GST-αC appendage construct described previously)
T1 sequence (P17427 701-938): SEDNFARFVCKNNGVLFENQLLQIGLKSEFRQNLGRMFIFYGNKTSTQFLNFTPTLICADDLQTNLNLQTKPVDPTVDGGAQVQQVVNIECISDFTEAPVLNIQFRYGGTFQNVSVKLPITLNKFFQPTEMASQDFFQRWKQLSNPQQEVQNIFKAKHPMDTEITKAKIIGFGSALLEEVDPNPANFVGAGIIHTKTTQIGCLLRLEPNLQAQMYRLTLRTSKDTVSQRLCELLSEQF
Experiment: pull-down; ~200 μg GST fusion on glutathione-Sepharose; rat brain cytosol supplemented with 5 μM or 25 μM purified AP-2 α appendage; recovery of the added α appendage in the pellets
Conditions: both partners purified

binding result: binds
B1: GST-EPS15 (595–740) (domain or fragment, UniProt P42566 595-740, looked up)
chain: SKEEDPFNVDSSSLTGPVADTNLDFFQSDPFVGSDPFKDDPFGKIDPFGGDPFKGSDPFASDCFFRQSTDPFATSSTDPFSAANNSSITSVETLKHNDPFAPGGTVVAASDSATDPFASVFGNESFGGGFADFSTLSKVNNEDPFR
notes: also called GST-EPS15 fusion; C-terminal region of EPS15; source: purified GST fusion (purification described in Umasankar et al., 2012)
